Laboratory results: IntAct's records for PubMed 16501113

B1: Probable early E4 11 kDa protein (Human adenovirus C serotype 5 (HAdV-5)), P04489 (parent)
chain: MIRCLRLKVEGALEQIFTMAGLNIRDLLRDILRRWRDENYLGMVEGAGMFIEEIHPEGFSLYVHLDVRAVCLLEAIVQHLTNAIICSLAVEFDHATGGERVHLIDLHFEVLDNLLE

Variants of: B1
Settings: with PML

**Q.** With MIRCLRLKVEGALEQIFTMAGLNIRDLLRDILRRWRDENYLGMVEGAGMFIEEIHPEGFSLYVHLDVRAVCLLEAIVQHLTNAIICSLAVEFDHATGGERVHAIDLHFEVLDNLLE [L103A] as the variant, how does the “effect of a mutation on the interaction” value read?
**A.** disrupting interaction

Variants of: B1
Settings: with PML
Remark: another data set of the same source

**Q.** With MIRCLRLKVAGALEQIFTMAGLNIRDLLRDILRRWRDENYLGMVEGAGMFIEEIHPEGFSLYVHLDVRAVCLLEAIVQHLTNAIICSLAVEFDHATGGERVHLIDLHFEVLDNLLE [E10A] as the variant, how does the “effect of a mutation on the interaction” value read?
**A.** decreasing interaction

**Q.** How did the “effect of a mutation on the interaction” value turn out when MIRCLRLKVEGALEQIFTMAGLNIRDLLRDILRRWRDENYLGMVEGAGMFIEEIHPEGFSLYVHLDVRAVCLLEAIVQHLTAAIICSLAVEFDHATGGERVHLIDLHFEVLDNLLE [N82A] was run?
**A.** disrupting interaction

**Q.** With MIRCLRLKVEGALEQIFTMAGLNIRDLLRDILRRWRDENYLGMVEGAGMFIEEIHPEGFSLYVHLDVRAVCLLAAIVQHLTNAIICSLAVEFDHATGGERVHLIDLHFEVLDNLLE [E74A] as the variant, how does the “effect of a mutation on the interaction” value read?
**A.** decreasing interaction

**Q.** For MIRALRLKVEGALEQIFTMAGLNIRDLLRDILRRWRDENYLGMVEGAGMFIEEIHPEGFSLYVHLDVRAVCLLEAIVQHLTNAIICSLAVEFDHATGGERVHLIDLHFEVLDNLLE [C4A], which “effect of a mutation on the interaction” value is on record?
**A.** decreasing interaction
